Assay results reported in patent US20080107600A1 (published 2008).
One block for each binder: values may come before it.

Columns and labels:
[1] = molecular target: T1, DISC1/ΔBR-FLAG (deleted DISC1 that lacks the FEZ1-binding region, FLAG-tagged) (human, UniProt Q9NRI5 1-854); experiment: co-immunoprecipitation from transfected HEK293T cells, anti-FLAG / anti-HA
T1 sequence: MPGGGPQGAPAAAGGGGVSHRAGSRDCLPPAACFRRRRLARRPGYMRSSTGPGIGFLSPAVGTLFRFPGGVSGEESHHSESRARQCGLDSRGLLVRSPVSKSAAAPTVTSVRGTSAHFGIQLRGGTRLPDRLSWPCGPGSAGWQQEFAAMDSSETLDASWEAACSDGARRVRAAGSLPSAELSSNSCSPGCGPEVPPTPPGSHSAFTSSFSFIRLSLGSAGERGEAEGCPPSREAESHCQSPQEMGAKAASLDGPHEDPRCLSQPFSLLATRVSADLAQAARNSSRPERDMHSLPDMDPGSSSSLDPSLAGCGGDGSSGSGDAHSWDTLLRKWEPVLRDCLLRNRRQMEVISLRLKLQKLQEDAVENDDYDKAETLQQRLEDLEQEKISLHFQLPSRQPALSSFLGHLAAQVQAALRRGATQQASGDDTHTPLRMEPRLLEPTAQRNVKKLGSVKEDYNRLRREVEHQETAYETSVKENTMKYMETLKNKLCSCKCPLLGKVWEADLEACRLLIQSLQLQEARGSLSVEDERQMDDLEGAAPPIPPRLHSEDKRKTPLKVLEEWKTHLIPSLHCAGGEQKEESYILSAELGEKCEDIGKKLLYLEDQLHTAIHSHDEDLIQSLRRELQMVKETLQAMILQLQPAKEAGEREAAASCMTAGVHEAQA
Procedure: (a) Yeast two-hybrid assay to determine the binding regions of FEZ1 (upper panel) and DISC1 (lower panel). Open bars indicate the FEZ1 clone obtained by the screening and DISC1 clone used as bait. Closed bars indicate shorter fragments. […] The α-galactosidase activity of yeast transformants were assayed. +++ indicates strongly positive as a positive control. ++, + and − indicate moderately positive, weakly positive and negative, respectively. (b) DISC1 coimmunoprecipitated with FEZ1. HEK293T cells were transfected with DISC1-FLAG and FEZ1-HA, individually or in combination. […] Immunoprecipitates by anti-FLAG or anti-HA antibody were blotted with the reciprocal antibody.
HEK293T cells were transfected with DISC1-FLAG and FEZ1-HA, individually or in combination. FLAG-tagged truncated forms of DISC1 mentioned in the Plasmids section were also transfected in combination with FEZ-HA. Cells were lysed in TNE buffer/1% NP40. Prepared lysates were incubated with anti-FLAG antibody for 2 hours at 4° C. and then with Protein Gagarose (Invitrogen) for 1 hour at 4° C. The agarose beads were then washed five times with TNE buffer. Immunoprecipitates were subjected to SDS-PAGE and blotted with anti-HA antibody. Conversely, immunoprecipitates with anti-HA antibody were blotted with anti-FLAG antibody. PC12 cells were transfected with FEZ1-HA or mock and then lysed in TNE buffer/1% NP40. […]

[2] = molecular target: T2, DISC1-FLAG (full-length human DISC1 with a C-terminal FLAG tag) (human, UniProt Q9NRI5 1-854); experiment: anti-FLAG immunoprecipitation from stable PC12 cells with or without NGF (50 ng/ml, 24 hours), blot with anti-FEZ1
T2 construct: also called FLAG-tagged DISC1
T2 sequence: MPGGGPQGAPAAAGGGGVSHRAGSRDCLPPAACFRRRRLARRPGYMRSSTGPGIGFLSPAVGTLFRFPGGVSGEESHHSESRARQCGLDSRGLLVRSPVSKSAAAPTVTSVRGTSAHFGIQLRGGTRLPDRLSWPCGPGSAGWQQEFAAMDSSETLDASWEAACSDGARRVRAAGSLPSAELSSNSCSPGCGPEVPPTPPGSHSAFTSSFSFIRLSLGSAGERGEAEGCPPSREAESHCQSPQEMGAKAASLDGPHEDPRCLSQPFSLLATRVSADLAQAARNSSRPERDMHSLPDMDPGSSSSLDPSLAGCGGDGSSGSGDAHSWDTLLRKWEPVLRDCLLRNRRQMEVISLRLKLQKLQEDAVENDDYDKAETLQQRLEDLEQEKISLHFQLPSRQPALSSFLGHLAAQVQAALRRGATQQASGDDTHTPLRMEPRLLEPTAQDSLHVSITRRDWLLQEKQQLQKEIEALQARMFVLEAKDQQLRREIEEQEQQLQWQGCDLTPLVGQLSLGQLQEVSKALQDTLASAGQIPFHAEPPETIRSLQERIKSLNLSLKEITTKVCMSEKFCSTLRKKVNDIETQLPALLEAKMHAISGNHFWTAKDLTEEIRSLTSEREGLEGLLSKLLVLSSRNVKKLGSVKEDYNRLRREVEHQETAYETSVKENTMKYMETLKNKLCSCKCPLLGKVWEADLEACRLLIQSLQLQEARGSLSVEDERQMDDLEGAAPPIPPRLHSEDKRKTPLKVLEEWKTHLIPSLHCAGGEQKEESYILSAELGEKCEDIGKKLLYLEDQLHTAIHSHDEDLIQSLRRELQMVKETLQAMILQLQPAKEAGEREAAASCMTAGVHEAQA
Procedure: Stably DISC1-FLAG-expressing PC12 cells were stimulated with a nerve growth factor (NGF) (50 ng/ml) for 24 hours and collected. Lysates were immunoprecipitated by anti-FLAG antibody. Immunoprecipitated complexes were subjected to SDS-PAGE and blotted with anti-FEZ1 antibody. […] Cells were either unstimulated (b, e, h, k) or stimulated with NGF (50 ng/ml) for 24 hours (c, f, 1,1), and 48 hours (d, g, J, m) and their neurites were subsequently microscopically observed.
HEK293T cells were transfected with DISC1-FLAG and FEZ1-HA, individually or in combination. FLAG-tagged truncated forms of DISC1 mentioned in the Plasmids section were also transfected in combination with FEZ-HA. Cells were lysed in TNE buffer/1% NP40. Prepared lysates were incubated with anti-FLAG antibody for 2 hours at 4° C. and then with Protein Gagarose (Invitrogen) for 1 hour at 4° C. The agarose beads were then washed five times with TNE buffer. Immunoprecipitates were subjected to SDS-PAGE and blotted with anti-HA antibody. Conversely, immunoprecipitates with anti-HA antibody were blotted with anti-FLAG antibody. PC12 cells were transfected with FEZ1-HA or mock and then lysed in TNE buffer/1% NP40. Lysates were immunoprecipitated by anti-HA antibody. Immunoprecipitates were subjected to SDS-PAGE and blotted with anti-actin antibody. […]

binding result [1]: no binding
B1: FEZ1-HA (human FEZ1 with a C-terminal HA tag) (other, not shown: small tags and cut ends)
chain: MEAPLVSLDEEFEDLRPSCSEDPEEKPQCFYGSSPHHLEDPSLSELENFSSEIISFKSMEDLVNEFDEKLNVCFRNYNAKTENLAPVKNQLQIQEEEETLQDEEVWDALTDNYIPSLSEDWRDPNIEALNGNCSDTEIHEKEEEEFNEKSENDSGINEEPLLTADQVIEEIEEMMQNSPDPEEEEEVLEEEDGGETSSQADSVLLQEMQALTQTFNNNWSYEGLRHMSGSELTELLDQVEGAIRDFSEELVQQLARRDELEFEKEVKNSFITVLIEVQNKQKEQRELMKKRRKEKGLSLQSSRIEKGNQMPLKRFSMEGISNILQSGIRQTFGSSGTDKQYLNTVIPYEKKASPPSVEDLQMLTNILFAMKEDNEKVPTLLTDYILKVLCPT
notes: Expressed from pcDNA3.1(+) in HEK293T or PC12 cells; also called HA-tagged FEZ1; FEZ-HA

binding result [2]: binds
B2: endogenous FEZ1 of PC12 cells (other, rat, UniProt P97577 1-393, looked up)
chain: MEAPLVSLDEEFEDIRPCCTEDPEEKPQSLYGTSPHHLEDPSLSELENFSSEIISFKSMEDLVNEFDEKLNVCFRNYNAKTENLAPVKNQLQIQEEEETLRDEEVWDALTDNYIPSLSEDWRDPNIEALNGNSSDTEIHEKEEEDEFIEKSENDSGINEEPLLTADQVIEEIEEMMQNSPDPEEEVEVLEEEDGGEISSQADSVLLQEMQALTQTFNNNWSYEGLRHMSGSELTELLDQVEGAIRDFSEELVHQLARRDELEFEKEVKNSFITVLIEVQNKQKEQRELMKKRRKEKGLSLQSSRIEKGNQMPLKRFSMEGISNILQSGIRQTFGSSGADRQYLNTVIPYEKKSSPPSVEDLQMLTNILFAMKEDNEKVPTLLTDYILKVLCPT
